Tested on: SOD-2 mRNA in NTM-115 cells
Assay: RT-qPCR of SOD-2 mRNA in NTM-115 TM cells treated with SAA
Type: cell-based
Conditions: rhSAA 40 ug/ml, 24 hr, compared to untreated cells, FIG. 4
Description: SOD-2 mRNA levels in FIG. 1 were measured using real-time quantitative PCR (RT-qPCR). In the RT-qPCR protocol used in one embodiment of the present invention, total RNA was extracted from cultured TM cells or from RNAlater-preserved ocular tissues by using a commercial kit of RNAqueous-4 PCR (Ambion, Austin, Tex.) according to the manufacturer's instructions. RNA quality was assessed by agarose gel electrophoresis or with a 2100 Bioanalyer (Agilent). cDNA was synthesized using MultiScribe reverse transcriptase and random hexamers (PE Applied Biosystems, Foster City, Calif.). Real-time PCR was performed using the ABI Prism 7700 Sequence Detection System according to the manufacturer's instructions (Applied Biosystems, Foster City, Calif.). […] Relative RNA concentrations were determined by comparison to a standard curve generated by different dilutions of TM cell cDNA. […]
In this embodiment, a TM cell line is treated with SAA, which causes overexpression of SOD-2. After addition of the test compound or appropriate vehicle control, the levels of SOD-2 are measured in the test and control replicates via qPCR using the protocol given in the description accompanying FIG. 1. […]

B1: serum amyloid A (protein, UniProt P0DJI8 19-122, looked up)
Serum amyloid A-1 protein: RSFFSFLGEAFDGARDMWRAYSDMREANYIGSDKYFHARGNYDAAKRGPGGAWAAEVITDARENIQRFFGHGAEDSLADQAANEWGRSGKDPNHFRPAGLPEKY
notes: acute-phase reactant protein; recombinant human SAA used to induce SOD-2 overexpression in TM cells
- SOD-2 mRNA levels: increased levels of SOD-2 mRNA

Source: patent US7807363B2, “Superoxide dismutase-2 expression for glaucoma diagnosis” (Alcon Research, Ltd., priority 2006, dated 2010)
